This note sets out measurements from patent US20050042205A1 (Genentech, Inc., published 2005).

The test addresses rat luteal LH/CG receptor (LH/CG-R) expressed from the cloned cDNA (expression vector pCLHR) in transiently … (rat, UniProt P16235). Put plainly: 125I-CG binding to intact 293 cells transfected with the LH/CG receptor cDNA.

B1: human choriogonadotropin, highly purified (CR-123; 12,780 IU/mg) (ligand)
chain 1: not shown
chain 2: SKEPLRPRCRPINATLAVEKEGCPVCITVNTTICAGYCPTMTRVLQGVLPALPQVVCNYRDVRFESIRLPGCPRGVNPVVSYAVALSCQCALCRRSTTDCGGPKDHPLTCDDPRFQDSSSSKAPPPSLPSPSRLPGPSDTPILPQ
B1 returned a Kd of 0.08 to 0.16 nM.
